The data set deals with the molecule itself. Put plainly: cell-based or functional assay.

B1: Oryza sativa gibberellin 2-oxidase 3 (OsGA2ox3), wild type (enzyme, rice (Oryza sativa), UniProt Q8S0S6 1-327, looked up)
chain: MVVLAGPPAVDHIPLLRSPDPGDVFSGVPVVDLGSPGAARAVVDACERYGFFKVVNHGVATDTMDKAESEAVRFFSQTQPDKDRSGPAYPFGYGSKRIGFNGDMGWLEYLLLALDDASLADACTVPSCAVFRAALNEYISGVRKVAVRVMEAMSEGLGIAQADALSALVTAEGSDQVFRVNHYPPCRALQGLGCSVTGFGEHTDPQLVSVLRSNGTSGLQIALRDGQWVSVPSDRDSFFVNVGDSLQVLTNGRFKSVKHRVVANSLKSRVSFIYFGGPPLAQRIAPLPQLLGEGEQSLYKEFTWDEYKKAAYKSRLGDNRLAQFEKK
For B1, the “Vmax of the tetramer and dimer against the monomers (forms separated by gel filtration)” value was > 3 fold.

For the origin of these results see paper PMC7195466, “A common allosteric mechanism regulates homeostatic inactivation of auxin and gibberellin” (Nature Communications, 2020).
